According to EP4786489A1, “IL-22 MUTANT, PREPARATION METHOD THEREFOR, AND USE THEREOF” (Nanjing Novoacine Biotechnology Co., Ltd., priority 2023, dated 2025):

How the values were obtained:
STAT3 = STAT3 phosphorylation in HaCaT cells by FACS (tissue activation preference); type: cell-based, Human; settings: STAT3 activation in HT29 vs HaCaT cells
Method: Human immortalized keratinocyte HaCaT cells were recovered and cultured in MEM/EBSS medium (Cytiva, SH30024.01) supplemented with 15% FBS and 1% P/S (Cytiva, SV30010). When cell confluence reached 70%-80%, cells were digested with 0.25% Trypsin-EDTA (Gibco, 25200-056), terminated with complete medium, and resuspended to […]. After mixed thoroughly, a total of 120 µL per well cells was seeded into a 96-well plate (Corning, 3599) at a density of 1.5 × 10^5 cells per well and incubated overnight at 37°C with 5% CO2.
wt IL-22 was prepared at an initial working concentration of 1000 nM, and the remaining samples were prepared at 10000 nM as the starting concentration. […] After staining at room temperature in the dark for 1 hour, cells were washed twice with 1× PBS and analyzed by flow cytometry to determine the mean fluorescence intensity (MFI).
Tissue activation preference of different test candidates was evaluated by comparing their ability to activate STAT3 in intestinal-derived HT29 cells and skin-derived HaCaT cells. […] The activity of PEGylated IL-22 mutants in activating STAT3 phosphorylation in HaCaT cells at different concentrations as determined by FACS is shown in Figure 8. […] Tissue preference of PEG-IL22 mutants for STAT3 phosphorylation in human intestinal and human skin cell lines determined by FACS

Reg3β = experiment: Mouse PD: plasma Reg3β after single administration (ELISA); type: in vivo; set-up: Reg3βCmax: unit not given here; settings: for Reg3βCmax: mouse plasma, wt IL-22 i.p.
Method: The ELISA method was used to determine the baseline levels and post-dose changes of the biomarker Reg3β in plasma samples before and after administration of different test candidates.
For the preferable test candidates, one mouse per dose group was subcutaneously injected at 0.5, 1, or 3 mg/kg. The control molecules were IL-22-Fc, administered subcutaneously at 0.3 and 1 mg/kg, and wt IL-22, administered intraperitoneally at the corresponding doses.
Approximately 40 µL of orbital blood was collected with anticoagulation on the day before dosing and at 4, 24, 48, 96, 144, 192, 264, 336, and 408 hours after dosing, followed by plasma separation. ELISA plates were coated overnight at 4°C with 1 µg/mL anti-Reg3β (Sino Biological, 51153-R065) dissolved in PBS. Mouse Reg3β (Sino Biological, 51153-M08H) was serially diluted to generate a positive control standard curve. Plasma samples were appropriately diluted to fall within the linear range of the standard curve. After blocking, samples were added and incubated for 2 hours. Incubation was then performed with the secondary antibody sheep anti-mouse Reg3β (R&D Systems, AF5110-SP) and HRP-conjugated antibody (HRP-Rabbit anti-sheep IgG H&L, Abcam, Ab97130). After final washing, tetramethylbenzidine peroxidase substrate (TMB, Surmodics, TMBS-1000-01) was added for color development for 10 minutes. The reaction was terminated with 2 M sulfuric acid, and absorbance was read at 450 nm with 630 nm as reference using a microplate reader. The original concentrations of Reg3β in each sample were calculated. Concentration versus time curves were plotted (Figure 9).

[1] = system: DSS-induced mouse acute colitis model; experiment: Mouse DSS-induced colitis efficacy model; type: in vivo, Balb/C mice
Excerpt: Balb/C mice were used to evaluate efficacy in a DSS-induced mouse acute colitis model. DSS refers to Dextran Sulfate Sodium Salt (MW: 36,000-50,000). When added to drinking water at an appropriate concentration, DSS disrupts intestinal epithelial cells and induces acute inflammatory bowel disease (IBD) in mice. Therefore, a 4% DSS-induced mouse IBD model was used to evaluate the potential therapeutic efficacy of the test candidates.
Male Balb/C mice were allowed free access to drinking water containing 4% DSS until the average body weight of the model group decreased by approximately 15%. Fresh drinking water was then provided, followed by a 2-day recovery period. Body weight and the severity of loose stool/hematochezia for each mouse were monitored throughout the study (Figure 13), and a composite Disease Activity Index (DAI) was evaluated (Figure 14). At the endpoint, the colon of each mouse was collected and its length measured (Figure 15). The colons were photographed, rolled into a Swiss-roll configuration, fixed in 4% paraformaldehyde, dehydrated, embedded in paraffin, sectioned, and subjected to H&E staining (Figures 17-18). Histological scoring was performed on tissue morphology(Figure 16).
The dosing regimen of the test candidates was as follows (the day of DSS modeling was defined as D1, the previous day as D-1, and so on). Table 15. Dosing information for the mouse DSS-induced colitis model study
Paraffin sections of colon tissues were subjected to H&E staining and histopathological analysis. According to the actual severity of the lesions, the following scoring criteria were used: minimal (1 point), mild (2 points), moderate (3 points), and severe (4 points). Lesion area (%) scoring criteria were defined as: ≥50% (4 points), 25%-50% (3 points), 10%-25% (2 points), and ≤10% (1 point). Inflammation depth scoring criteria were defined as: epithelium (1 point), lamina propria (2 points), and muscularis mucosae (3 points). No lesion was recorded as "-". The score was calculated by summing the scores from the above three dimensions.

ear skin inflammation = settings: mouse, in vivo
Method: Balb/C mice were used for induction of ear skin inflammation. By repeated inner-ear injections of the test candidates, changes in ear swelling thickness after injection were measured to reflect the ability of the test candidates to induce local inflammatory responses in the skin.
On Days 0, 1, 2 and 4, 5 µL of PBS solution containing the indicated amount of each test candidate was injected into the inner side of both ears of each mouse. Ear thickness was measured daily using a micrometer, and the increase of ear thickness relative to Day 0 (delta thickness) on each day after injection was calculated.

B1: 60K-PEG-IL22-P120C: IL-22 cysteine mutant, conjugation site 87, PEG-maleimide 60kD (conjugate)
chain: APISSHCRLDKSNFQQPYITNRTFMLAKEASLADNNTDVRLIGEKLFHGVSMSERCYLMKQVLNFTLEEVLFPQSDRFQPYMQEVVCFLARLSNRLSTCHIEGDDLHIQRNVQKLKDTVKKLGESGEIKAIGELDLLFMSLRNACI
tissue preference compared with IL-22-Fc (STAT3): superior tissue preference | Normalized Cmax ratio of Reg3β (relative to IL-22-Fc) (Reg3β; 0.5mg/kg single dose vs IL-22-Fc 0.3 mg/kg): 265% | Reg3βCmax (Reg3β; 0.5mg/kg single dose, test candidates s.c., one mouse per dose group): 41.8 | Normalized Cmax ratio of Reg3β (relative to IL-22-Fc) (Reg3β; 1mg/kg single dose): 133% | Reg3βCmax (Reg3β; 1mg/kg single dose, s.c.): 43.9 | Reg3βCmax (Reg3β; 3mg/kg single dose, s.c.): 43.3 | peak concentrations of Reg3β stimulation compared with IL-22-Fc (Reg3β; similar (0.5 mg/kg vs. 0.3 mg/kg) or identical (1 mg/kg) doses): higher peak concentrations | efficacy compared with 0.03 mg/kg IL-22-Fc (Group G6) ([1]; 0.1 mg/kg (Group G4), body weight, DAI, colon length, histological scoring): superior efficacy | colon tissue morphology (H&E histology) ([1]; 0.1 mg/kg s.c., days 4 and 6 (G4)): relatively intact | efficacy dose difference relative to IL-22-Fc ([1]; 0.1 mg/kg vs 0.03 mg/kg): 3 fold | efficacy in the mouse DSS-induced acute colitis model ([1]; body weight, DAI, colon length, histological scoring): clear efficacy | equivalent dose required to induce a comparable overall increase in ear thickness, relative to IL-22-Fc (ear skin inflammation): approximately 8 fold
